We go through 16 substances from PMC5313200.

The experiment addresses mitochondrial antiviral signaling protein (MAVS), from pCMV-FLAG-MAVS (UniProt Q8VCF0). Description: co-immunoprecipitation with quantitative western blot. Conditions: 293T cells co-transfected with MAVS and viperin mutant; at least 3 independent experiments; parent: est. 100; read off a plot. (A western blot detects proteins with antibodies after separation by electrophoresis.)
Regarding “viperin (Virus Inhibitory Protein, Endoplasmic Reticulum-associated, interferon-inducible), wild type, from pcDNA3.1-viperin (from UniProt Q8CBB9) C84A”, the percent of parent came to 93 % WT. In the case of “viperin (Virus Inhibitory Protein, Endoplasmic Reticulum-associated, interferon-inducible), wild type, from pcDNA3.1-viperin (from UniProt Q8CBB9) F90A” it was 160 % WT; in that of “viperin (Virus Inhibitory Protein, Endoplasmic Reticulum-associated, interferon-inducible), wild type, from pcDNA3.1-viperin (from UniProt Q8CBB9) G117A”, 20 % WT.

Take “viperin (Virus Inhibitory Protein, Endoplasmic Reticulum-associated, interferon-inducible), wild type, from pcDNA3.1-viperin (from UniProt Q8CBB9) H79A”: the percent of parent is 140 % WT. In the case of “viperin (Virus Inhibitory Protein, Endoplasmic Reticulum-associated, interferon-inducible), wild type, from pcDNA3.1-viperin (from UniProt Q8CBB9) H93A” it was 90 % WT.

Regarding “viperin (Virus Inhibitory Protein, Endoplasmic Reticulum-associated, interferon-inducible), wild type, from pcDNA3.1-viperin (from UniProt Q8CBB9) K96A”, the percent of parent came out at 81 % WT. In the case of “viperin (Virus Inhibitory Protein, Endoplasmic Reticulum-associated, interferon-inducible), wild type, from pcDNA3.1-viperin (from UniProt Q8CBB9) K120A” it was 12 % WT. In the case of “viperin (Virus Inhibitory Protein, Endoplasmic Reticulum-associated, interferon-inducible), wild type, from pcDNA3.1-viperin (from UniProt Q8CBB9) N77A” it was 83 % WT; in that of “viperin (Virus Inhibitory Protein, Endoplasmic Reticulum-associated, interferon-inducible), wild type, from pcDNA3.1-viperin (from UniProt Q8CBB9) N85A”, 100 % WT; in that of “viperin (Virus Inhibitory Protein, Endoplasmic Reticulum-associated, interferon-inducible), wild type, from pcDNA3.1-viperin (from UniProt Q8CBB9) P73A”, 220 % WT. In the case of “viperin (Virus Inhibitory Protein, Endoplasmic Reticulum-associated, interferon-inducible), wild type, from pcDNA3.1-viperin (from UniProt Q8CBB9) R82A” it was 66 % WT; in that of “viperin (Virus Inhibitory Protein, Endoplasmic Reticulum-associated, interferon-inducible), wild type, from pcDNA3.1-viperin (from UniProt Q8CBB9) S75A”, 57 % WT.

Regarding “viperin (Virus Inhibitory Protein, Endoplasmic Reticulum-associated, interferon-inducible), wild type, from pcDNA3.1-viperin (from UniProt Q8CBB9) T81A”, the percent of parent worked out at 240 % WT. In the case of “viperin (Virus Inhibitory Protein, Endoplasmic Reticulum-associated, interferon-inducible), wild type, from pcDNA3.1-viperin (from UniProt Q8CBB9) T94A” it was 30 % WT. In the case of “viperin (Virus Inhibitory Protein, Endoplasmic Reticulum-associated, interferon-inducible), wild type, from pcDNA3.1-viperin (from UniProt Q8CBB9) T97A” it was 45 % WT; in that of “viperin (Virus Inhibitory Protein, Endoplasmic Reticulum-associated, interferon-inducible), wild type, from pcDNA3.1-viperin (from UniProt Q8CBB9) Y86A”, 120 % WT.
